Test results published in article PMC8231982.

Target: influenza hemagglutinin full length protein, A/New-York/55/04 (H3N2) (influenza A virus A/New-York/55/04 (H3N2))
Assay: SPR

Sequence of wild-type cyanovirin-N (WT CV–N) (P81180 whole entry): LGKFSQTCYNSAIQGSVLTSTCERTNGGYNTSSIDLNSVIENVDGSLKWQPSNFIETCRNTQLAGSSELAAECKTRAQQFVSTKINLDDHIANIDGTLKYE

In the case of “wild-type cyanovirin-N (WT CV–N) (from UniProt P81180 1-101) (natural protein)”, the Kd is reported as 5.7 nM.
